Test results reported in patent US7211423B2, “Acetyl CoA carboxylase 2 sequences and methods” (Bristol-Myers Squibb Co., priority 2004, dated 2007).

Tested on: CC(=O)SCCNC(=O)CCNC(=O)[C@H](O)C(C)(C)COP(=O)(O)OP(=O)(O)OC[C@H]1O[C@@H](n2cnc3c(N)ncnc32)[C@H](O)[C@@H]1OP(=O)(O)O
Assay: purified protein, by the assay type
Conditions: other: substrate varied, all other reagents saturating, 37° C., pH 7.5

recombinant human ACC2 (Homo sapiens; V2141I), sequence (chain, as listed by the source V2141I): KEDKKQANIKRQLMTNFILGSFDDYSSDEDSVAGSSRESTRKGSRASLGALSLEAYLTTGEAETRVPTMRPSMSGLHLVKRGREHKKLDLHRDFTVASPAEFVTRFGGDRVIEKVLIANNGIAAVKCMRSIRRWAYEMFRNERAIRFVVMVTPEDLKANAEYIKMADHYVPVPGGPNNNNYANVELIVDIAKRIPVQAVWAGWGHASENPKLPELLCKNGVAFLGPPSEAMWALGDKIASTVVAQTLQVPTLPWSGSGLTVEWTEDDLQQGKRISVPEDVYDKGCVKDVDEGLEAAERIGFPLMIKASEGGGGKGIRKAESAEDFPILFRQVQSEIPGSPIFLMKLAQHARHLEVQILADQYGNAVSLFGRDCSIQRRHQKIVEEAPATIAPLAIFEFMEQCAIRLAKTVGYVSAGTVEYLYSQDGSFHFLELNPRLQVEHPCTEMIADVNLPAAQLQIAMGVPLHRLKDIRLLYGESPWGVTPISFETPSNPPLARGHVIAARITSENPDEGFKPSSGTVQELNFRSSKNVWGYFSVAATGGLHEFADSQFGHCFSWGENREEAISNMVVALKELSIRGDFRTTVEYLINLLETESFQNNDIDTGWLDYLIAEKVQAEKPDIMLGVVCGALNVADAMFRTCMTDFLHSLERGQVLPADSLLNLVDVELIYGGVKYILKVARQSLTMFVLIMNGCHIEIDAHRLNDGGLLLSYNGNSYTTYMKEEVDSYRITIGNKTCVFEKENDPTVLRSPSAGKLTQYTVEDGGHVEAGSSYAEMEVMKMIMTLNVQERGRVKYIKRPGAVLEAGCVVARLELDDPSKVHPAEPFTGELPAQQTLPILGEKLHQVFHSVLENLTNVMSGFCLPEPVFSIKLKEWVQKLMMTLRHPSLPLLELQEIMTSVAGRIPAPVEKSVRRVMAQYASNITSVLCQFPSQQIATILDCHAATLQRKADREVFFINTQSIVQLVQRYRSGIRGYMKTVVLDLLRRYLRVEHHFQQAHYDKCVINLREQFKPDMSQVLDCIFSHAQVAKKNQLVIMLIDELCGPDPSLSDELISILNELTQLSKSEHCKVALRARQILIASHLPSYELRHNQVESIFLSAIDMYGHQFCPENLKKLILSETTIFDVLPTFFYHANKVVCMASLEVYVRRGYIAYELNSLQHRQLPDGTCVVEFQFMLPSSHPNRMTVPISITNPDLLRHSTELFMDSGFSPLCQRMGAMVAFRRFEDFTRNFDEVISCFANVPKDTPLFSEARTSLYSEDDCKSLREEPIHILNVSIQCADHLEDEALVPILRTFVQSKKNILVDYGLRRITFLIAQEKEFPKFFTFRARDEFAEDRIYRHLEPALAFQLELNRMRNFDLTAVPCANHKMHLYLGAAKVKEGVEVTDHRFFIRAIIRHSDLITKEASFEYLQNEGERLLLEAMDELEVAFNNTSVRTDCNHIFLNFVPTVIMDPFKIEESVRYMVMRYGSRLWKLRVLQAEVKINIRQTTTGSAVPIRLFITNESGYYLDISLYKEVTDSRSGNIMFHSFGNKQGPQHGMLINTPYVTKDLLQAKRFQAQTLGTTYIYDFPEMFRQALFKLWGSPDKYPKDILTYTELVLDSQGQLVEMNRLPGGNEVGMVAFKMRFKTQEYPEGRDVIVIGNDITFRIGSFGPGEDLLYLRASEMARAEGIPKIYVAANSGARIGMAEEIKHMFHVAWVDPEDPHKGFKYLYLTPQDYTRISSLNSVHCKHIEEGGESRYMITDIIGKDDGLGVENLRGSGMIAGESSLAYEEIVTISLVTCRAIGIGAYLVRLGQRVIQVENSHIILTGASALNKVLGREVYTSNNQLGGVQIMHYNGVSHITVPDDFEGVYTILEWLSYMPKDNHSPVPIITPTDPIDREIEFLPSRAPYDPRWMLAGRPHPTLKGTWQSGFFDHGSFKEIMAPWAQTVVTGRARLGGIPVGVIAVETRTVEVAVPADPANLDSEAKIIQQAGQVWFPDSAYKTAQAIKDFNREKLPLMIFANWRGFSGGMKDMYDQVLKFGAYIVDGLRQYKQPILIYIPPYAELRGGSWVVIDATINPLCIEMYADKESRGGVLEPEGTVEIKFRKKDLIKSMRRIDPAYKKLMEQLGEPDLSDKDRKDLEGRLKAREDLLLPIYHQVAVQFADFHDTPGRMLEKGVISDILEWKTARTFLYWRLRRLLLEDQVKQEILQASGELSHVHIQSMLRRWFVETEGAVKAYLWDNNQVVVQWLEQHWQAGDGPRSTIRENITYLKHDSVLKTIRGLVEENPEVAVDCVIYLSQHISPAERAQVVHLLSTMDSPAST

recombinant human ACC2 (Homo sapiens; V2141I)
Km: 23 µM
